Assay results as given in article PMC4932716.

Columns and labels:
[1] = biological target: recombinant ArtinM (rArtinM) (Artocarpus heterophyllus); experiment: AUC; sedimentation velocity at 50,000 rpm, 20 °C, c(S) fit in SEDFIT; confirmed by sedimentation equilibrium
[2] = biological target: native ArtinM (jArtinM) (Artocarpus heterophyllus); experiment: SDS-PAGE of undenatured sample; undenatured protein (no thermal dissociation) loaded on 12.5 % SDS-PAGE, 3 μg per lane, Coomassie blue G-250

stoichiometry N [1] | stoichiometry N [2] | Substance
3 |  | recombinant ArtinM (rArtinM) (natural protein)
 | 4 | native ArtinM (jArtinM) (natural protein)
